Sequences and labels used below:
B1: GAGE1 (parent)
chain: RPRRYVQPPEMIGPMRPEQFSDEV

94 variants from the supplement of paper PMC10567573 can be followed below.
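Note: lentivirally expressed fusions sorted by FACS into six bins by GFP to DsRed ratio, PSI derived from sequencing read proportions per bin multiplied by bin number.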

The data set covers variants of B1. Briefly: protein stability index of a GFP-peptide fusion (GPS, HEK-293T) (PSI 1-6); higher = more stable. Particulars: c terminus: a fixed tail appended.
RPQRYVQPPEMIGPMRPEQFSDEV: the protein stability index stood at 4.11.

Take RPMRYVQPPEMIGPMRPEQFSDEV: the protein stability index turned out to be 3.89.

In the case of RPVRYVQPPEMIGPMRPEQFSDEV, the protein stability index stood at 4.03.

As to RPPRYVQPPEMIGPMRPEQFSDEV, the protein stability index was 4.04.

For RPDRYVQPPEMIGPMRPEQFSDEV, the protein stability index came out at 4.28.

With RPGRYVQPPEMIGPMRPEQFSDEV, the protein stability index is 3.96.

For the variant RPRRYVQPEEMIGPMRPEQFSDEV, the protein stability index was determined as 4.71.

Take RPRRYVQPKEMIGPMRPEQFSDEV: the protein stability index was 4.13.

In the case of RPRRYVQPLEMIGPMRPEQFSDEV, the protein stability index is 4.

For RPRRYVQPYEMIGPMRPEQFSDEV, the protein stability index came to 3.62.

Turning to RPRRYVQPDEMIGPMRPEQFSDEV, the protein stability index came out at 4.61.

With RPRRYVQPQEMIGPMRPEQFSDEV, the protein stability index came to 4.52.

Take RPRRYVQPCEMIGPMRPEQFSDEV: the protein stability index turned out to be 4.24.

With RPRRYVQPHEMIGPMRPEQFSDEV, the protein stability index came to 3.82.

On to RPRRYVQPAEMIGPMRPEQFSDEV, for which the protein stability index amounted to 3.75.

As for RPRRYVQPSEMIGPMRPEQFSDEV, the protein stability index stood at 4.29.

As for RPRRYVQPGEMIGPMRPEQFSDEV, the protein stability index amounted to 4.46.

Take RPRRYVQPNEMIGPMRPEQFSDEV: the protein stability index amounted to 3.97.

For RPRRYVQPWEMIGPMRPEQFSDEV, the protein stability index turned out to be 3.77.

In the case of RPRRYVQPPEMIGPMRPEGFSDEV, the protein stability index was 4.28.

RPRRYVQPPEMIGPMRPESFSDEV: the protein stability index worked out at 3.82.

In the case of RPRRYVQPPEMIGPMRPEAFSDEV, the protein stability index came to 3.71.

Consider RPRRYVQPPEMIGPMRPEIFSDEV, for which the protein stability index was 3.78.

For RPRRYVQPPEMIGPMRPEVFSDEV, the protein stability index stood at 3.78.

With RPRRYVQPPEMIGPYRPEQFSDEV, the protein stability index amounted to 4.

RPRRYVQPPEMIGPGRPEQFSDEV: the protein stability index is 4.7.

As for RPRRYVQPPEMIGPNRPEQFSDEV, the protein stability index stood at 3.97.

For the variant RPRRYVQPPEMIGPIRPEQFSDEV, the protein stability index came to 4.12.

Turning to RPRRYVQPPEMIGPRRPEQFSDEV, the protein stability index turned out to be 4.17.

On to RPRRYVQPPEMIGPARPEQFSDEV, for which the protein stability index came out at 4.21.

In the case of RPRRYVQPPEMIGPWRPEQFSDEV, the protein stability index stood at 3.49.

With RPRRYVQPPEMIGPTRPEQFSDEV, the protein stability index turned out to be 4.72.

As for RPRRYVQPPQMIGPMRPEQFSDEV, the protein stability index was determined as 3.69.

Turning to RPRRYVQPPPMIGPMRPEQFSDEV, the protein stability index stood at 4.25.

Regarding RPRRYVQPPKMIGPMRPEQFSDEV, the protein stability index came to 4.48.

On to RPRRYVQPPSMIGPMRPEQFSDEV, for which the protein stability index worked out at 4.08.

Regarding RPRRYVQPPYMIGPMRPEQFSDEV, the protein stability index was 3.18.

For RPRRYVLPPEMIGPMRPEQFSDEV, the protein stability index turned out to be 3.85.

RPRRYVNPPEMIGPMRPEQFSDEV: the protein stability index came out at 3.64.

Turning to RPRRYVDPPEMIGPMRPEQFSDEV, the protein stability index was found to be 3.8.

As to RPRRYVPPPEMIGPMRPEQFSDEV, the protein stability index was 3.96.

As for RPRRYVIPPEMIGPMRPEQFSDEV, the protein stability index was 3.63.

Regarding RPRRYVSPPEMIGPMRPEQFSDEV, the protein stability index came out at 4.24.

Consider RPRRYVKPPEMIGPMRPEQFSDEV, for which the protein stability index is 4.02.

In the case of RPRRYVWPPEMIGPMRPEQFSDEV, the protein stability index is 3.73.

For the variant RPRRYVQPPEMIGPMRPEQFSKEV, the protein stability index stood at 3.88.

With RPRRYVQPPEMIGPMRPEQFSNEV, the protein stability index was found to be 3.23.

RPRRYVQPPEMIGPMRPEQFSAEV: the protein stability index was determined as 3.87.

For the variant RPRRYVQPPEMIGPMRPEQFSSEV, the protein stability index was determined as 3.95.

Regarding RPRRYVQPPEMIGPMRPEQFSLEV, the protein stability index stood at 2.6.

In the case of RPRRYVQPPEMIGPMRPEQFSHEV, the protein stability index turned out to be 3.29.

Regarding RPRRYVQPPEMIGPMRPEQFSTEV, the protein stability index is 3.76.

RPRRYVQPPEMIGPMRPEQFSIEV: the protein stability index worked out at 1.97.

In the case of RPRRYVQPPEIIGPMRPEQFSDEV, the protein stability index is 3.38.

In the case of RPRRYVQPPEYIGPMRPEQFSDEV, the protein stability index turned out to be 3.82.

On to RPRRYVQPPELIGPMRPEQFSDEV, for which the protein stability index was found to be 3.4.

As for RPRRYVQPPETIGPMRPEQFSDEV, the protein stability index was determined as 3.74.

Consider RPRRYVQPPEDIGPMRPEQFSDEV, for which the protein stability index worked out at 3.53.

Consider RPRRYVQPPEKIGPMRPEQFSDEV, for which the protein stability index is 4.15.

For the variant RPRRYVQPPEGIGPMRPEQFSDEV, the protein stability index was 4.44.

Turning to RPRRYVQPPERIGPMRPEQFSDEV, the protein stability index worked out at 4.22.

As for RPRRYVQPPEVIGPMRPEQFSDEV, the protein stability index was 3.46.

In the case of RPRRYVQPPEMIGPMRPEQFPDEV, the protein stability index stood at 3.99.

Regarding RPRRYVQPPEMIGPMRPEQFDDEV, the protein stability index came out at 3.98.

RPRRYVQPPEMIGPMRPEQFKDEV: the protein stability index turned out to be 4.

Take RPRRYVQPPEMIGPMRPEQFMDEV: the protein stability index was found to be 3.44.

RPRRYVQSPEMIGPMRPEQFSDEV: the protein stability index is 4.36.

With RPRRYVQMPEMIGPMRPEQFSDEV, the protein stability index was found to be 3.48.

With RPRRYVQHPEMIGPMRPEQFSDEV, the protein stability index amounted to 4.18.

For the variant RPRRYVQAPEMIGPMRPEQFSDEV, the protein stability index stood at 3.71.

In the case of RPRRYVQVPEMIGPMRPEQFSDEV, the protein stability index came to 3.5.

For the variant RPRCYVQPPEMIGPMRPEQFSDEV, the protein stability index came out at 3.64.

Take RPRNYVQPPEMIGPMRPEQFSDEV: the protein stability index was 3.72.

For RPRFYVQPPEMIGPMRPEQFSDEV, the protein stability index came out at 3.88.

On to RGRRYVQPPEMIGPMRPEQFSDEV, for which the protein stability index was 3.59.

Take RKRRYVQPPEMIGPMRPEQFSDEV: the protein stability index came to 3.24.

As for RNRRYVQPPEMIGPMRPEQFSDEV, the protein stability index worked out at 3.51.

Take RVRRYVQPPEMIGPMRPEQFSDEV: the protein stability index came out at 3.5.

For RARRYVQPPEMIGPMRPEQFSDEV, the protein stability index is 3.59.

Turning to RPRRYVQPPEMIGPMRPEQFSDNV, the protein stability index was 3.42.

Take RPRRYVQPPEMIGPMRPEQFSDWV: the protein stability index came to 2.95.

Take RPRRYVQPPEMIGPMRPEQFSDRV: the protein stability index came out at 3.85.

As for RPRRYVQPPEMIGPMRPEQFSDFV, the protein stability index worked out at 2.98.

For the variant RPRRYVQPPEMIGPMRPEQFSDCV, the protein stability index worked out at 3.58.

Take RPRRYVQPPEMIGPMRPEQFSDSV: the protein stability index was found to be 3.68.

With RPRRYVQPPEMIGPMRPEQFSDHV, the protein stability index turned out to be 3.6.

For RPRRYVQPPEMIGPMRPDQFSDEV, the protein stability index worked out at 3.48.

As for RPRRYVQPPEMIGPMRPQQFSDEV, the protein stability index was 3.56.

In the case of RPRRYVQPPEMIGPMRPLQFSDEV, the protein stability index came out at 3.52.

For RPRRYVQPPEMIGPMRPWQFSDEV, the protein stability index came to 3.16.

Turning to RPRRYVQPPEMIGPMRPHQFSDEV, the protein stability index was 3.46.

As to RPRRYVQPPEMIGPMRPMQFSDEV, the protein stability index turned out to be 3.45.

For the variant RPRRYVQPPEMIGPMRPKQFSDEV, the protein stability index was determined as 3.43.

RPRRYVQPPEMIGPMRPSQFSDEV: the protein stability index stood at 3.33.
